Data reported in the Human Domainome abundance scans (Beltran et al. 2025).
± gives the uncertainty stated by the source.

B1: Zinc finger homeobox protein 4, residues 2562 to 2617; numbered along this chain, Q86UP3 (parent)
chain: RLRTTITPEQLEILYEKYLLDSNPTRKMLDHIAREVGLKKRVVQVWFQNTRARERK

Variants of: B1
Test: abundance fitness (aPCA) (normalised: wild type 0, dead -1); higher = more abundant; growth selection in yeast, the domain comes from the species named
Conditions: Homo sapiens

In order of rising abundance fitness:
1. RLRTTITPEQLEILYEKSLLDSNPTRKMLDHIAREVGLKKRVVQVWFQNTRARERK [Y18S]  -0.975 ± 0.18
2. RLRTTITPEQLEILYEKYPLDSNPTRKMLDHIAREVGLKKRVVQVWFQNTRARERK [L19P]  -0.897 ± 0.29
3. RLRTTITPEQLEILYEKTLLDSNPTRKMLDHIAREVGLKKRVVQVWFQNTRARERK [Y18T]  -0.874 ± 0.23
4. RLRTTITPEQLEILYEKMLLDSNPTRKMLDHIAREVGLKKRVVQVWFQNTRARERK [Y18M]  -0.856 ± 0.32
5. RLRTTITPEQLEILYEKPLLDSNPTRKMLDHIAREVGLKKRVVQVWFQNTRARERK [Y18P]  -0.842 ± 0.25
6. RLRTTITPEQLEILYEKQLLDSNPTRKMLDHIAREVGLKKRVVQVWFQNTRARERK [Y18Q]  -0.839 ± 0.43
7. RLRTTITPEQLEILYEKVLLDSNPTRKMLDHIAREVGLKKRVVQVWFQNTRARERK [Y18V]  -0.764 ± 0.095
8. RLRTTITPEQLEILYEKRLLDSNPTRKMLDHIAREVGLKKRVVQVWFQNTRARERK [Y18R]  -0.659 ± 0.12
9. RLRTTITPEQLEILYEKYLPDSNPTRKMLDHIAREVGLKKRVVQVWFQNTRARERK [L20P]  -0.652 ± 0.21
10. RLRTTITPEQLEILYEKNLLDSNPTRKMLDHIAREVGLKKRVVQVWFQNTRARERK [Y18N]  -0.59 ± 0.42
11. RLRTTITPEQLEILYEKLLLDSNPTRKMLDHIAREVGLKKRVVQVWFQNTRARERK [Y18L]  -0.439 ± 0.13
12. RLRTTITPEQLEILYEKYLLASNPTRKMLDHIAREVGLKKRVVQVWFQNTRARERK [D21A]  -0.435 ± 0.085
13. RLRTTITPEQLEILYEKYLLCSNPTRKMLDHIAREVGLKKRVVQVWFQNTRARERK [D21C]  -0.378 ± 0.11
14. RLRTTITPEQLEILYEKYLDDSNPTRKMLDHIAREVGLKKRVVQVWFQNTRARERK [L20D]  -0.333 ± 0.15
15. RLRTTITPEQLEILYEKWLLDSNPTRKMLDHIAREVGLKKRVVQVWFQNTRARERK [Y18W]  -0.31 ± 0.1
16. RLRTTITPEQLEILYEKYLCDSNPTRKMLDHIAREVGLKKRVVQVWFQNTRARERK [L20C]  -0.236 ± 0.07
17. RLRTTITPEQLEILYEKYWLDSNPTRKMLDHIAREVGLKKRVVQVWFQNTRARERK [L19W]  -0.229 ± 0.085
18. RLRTTITPEQLEILYEKYQLDSNPTRKMLDHIAREVGLKKRVVQVWFQNTRARERK [L19Q]  -0.214 ± 0.21
19. RLRTTITPEQLEILYEKYLSDSNPTRKMLDHIAREVGLKKRVVQVWFQNTRARERK [L20S]  -0.193 ± 0.058
20. RLRTTITPEQLEILYEKYLTDSNPTRKMLDHIAREVGLKKRVVQVWFQNTRARERK [L20T]  -0.19 ± 0.092
21. RLRTTITPEQLEILYEKYLQDSNPTRKMLDHIAREVGLKKRVVQVWFQNTRARERK [L20Q]  -0.182 ± 0.072
22. RLRTTITPEQLEILYEKYTLDSNPTRKMLDHIAREVGLKKRVVQVWFQNTRARERK [L19T]  -0.175 ± 0.11
23. RLRTTITPEQLEILYEKYLRDSNPTRKMLDHIAREVGLKKRVVQVWFQNTRARERK [L20R]  -0.162 ± 0.075
24. RLRTTITPEQLEILYEKYKLDSNPTRKMLDHIAREVGLKKRVVQVWFQNTRARERK [L19K]  -0.154 ± 0.12
25. RLRTTITPEQLEILYEKYYLDSNPTRKMLDHIAREVGLKKRVVQVWFQNTRARERK [L19Y]  -0.153 ± 0.15
26. RLRTTITPEQLEILYEKYELDSNPTRKMLDHIAREVGLKKRVVQVWFQNTRARERK [L19E]  -0.136 ± 0.11
27. RLRTTITPEQLEILYEKYMLDSNPTRKMLDHIAREVGLKKRVVQVWFQNTRARERK [L19M]  -0.131 ± 0.1
28. RLRTTITPEQLEILYEKYLWDSNPTRKMLDHIAREVGLKKRVVQVWFQNTRARERK [L20W]  -0.124 ± 0.074
29. RLRTTITPEQLEILYEKYLNDSNPTRKMLDHIAREVGLKKRVVQVWFQNTRARERK [L20N]  -0.122 ± 0.084
30. RLRTTITPEQLEILYEKYLGDSNPTRKMLDHIAREVGLKKRVVQVWFQNTRARERK [L20G]  -0.114 ± 0.059
31. RLRTTITPEQLEILYEKYRLDSNPTRKMLDHIAREVGLKKRVVQVWFQNTRARERK [L19R]  -0.112 ± 0.071
32. RLRTTITPEQLEILYEKYLMDSNPTRKMLDHIAREVGLKKRVVQVWFQNTRARERK [L20M]  -0.112 ± 0.068
33. RLRTTITPEQLEILYEKYLADSNPTRKMLDHIAREVGLKKRVVQVWFQNTRARERK [L20A]  -0.103 ± 0.07
34. RLRTTITPEQLEILYEKYDLDSNPTRKMLDHIAREVGLKKRVVQVWFQNTRARERK [L19D]  -0.098 ± 0.097
35. RLRTTITPEQLEILYEKYALDSNPTRKMLDHIAREVGLKKRVVQVWFQNTRARERK [L19A]  -0.094 ± 0.077
36. RLRTTITPEQLEILYEKYLEDSNPTRKMLDHIAREVGLKKRVVQVWFQNTRARERK [L20E]  -0.092 ± 0.08
37. RLRTTITPEQLEILYEKYNLDSNPTRKMLDHIAREVGLKKRVVQVWFQNTRARERK [L19N]  -0.091 ± 0.14
38. RLRTTITPEQLEILYEKYCLDSNPTRKMLDHIAREVGLKKRVVQVWFQNTRARERK [L19C]  -0.084 ± 0.1
39. RLRTTITPEQLEILYEKYLIDSNPTRKMLDHIAREVGLKKRVVQVWFQNTRARERK [L20I]  -0.079 ± 0.072
40. RLRTTITPEQLEILYEKYFLDSNPTRKMLDHIAREVGLKKRVVQVWFQNTRARERK [L19F]  -0.065 ± 0.13
41. RLRTTITPEQLEILYEKYLFDSNPTRKMLDHIAREVGLKKRVVQVWFQNTRARERK [L20F]  -0.062 ± 0.082
42. RLRTTITPEQLEILYEKYVLDSNPTRKMLDHIAREVGLKKRVVQVWFQNTRARERK [L19V]  -0.055 ± 0.064
43. RLRTTITPEQLEILYEKYSLDSNPTRKMLDHIAREVGLKKRVVQVWFQNTRARERK [L19S]  -0.034 ± 0.071
44. RLRTTITPEQLEILYEKYGLDSNPTRKMLDHIAREVGLKKRVVQVWFQNTRARERK [L19G]  -0.023 ± 0.049
45. RLRTTITPEQLEILYEKYLVDSNPTRKMLDHIAREVGLKKRVVQVWFQNTRARERK [L20V]  -0.02 ± 0.063
46. RLRTTITPEQLEILYEKYLKDSNPTRKMLDHIAREVGLKKRVVQVWFQNTRARERK [L20K]  0.035 ± 0.11
47. RLRTTITPEQLEILYEKYILDSNPTRKMLDHIAREVGLKKRVVQVWFQNTRARERK [L19I]  0.196 ± 0.14
